# Assay results published in US20110076268A1 (CRUCELL HOLLAND B V, published 2011).
# B1: Motavizumab (antibody, V domains shown)
# VH: QVTLRESGPALVKPTQTLTLTCTFSGFSLSTAGMSVGWIRQPPGKALEWLADIWWDDKKHYNPSLKDRLTISKDTSKNQVVLKVTNMDPADTATYYCARDMIFNFYFDVWGQGTTVTVSS
# VL: DIQMTQSPSTLSASVGDRVTITCSASSRVGYMHWYQQKPGKAPKLLIYDTSKLASGVPSRFSGSGSGTEFTLTISSLQPDDFATYYCFQGSGYPFTFGGGTKVEIK
# Key:
# [1] = biological target: F protein of MARM 1129 (RSV A2 escape mutant generated against murine mAb 1129) (Respiratory Syncytial Virus strain A2) (UniProt P03420); assay: cell-based or functional assay
# [2] = biological target: F protein of MARM 151 (RSV A2 escape mutant generated against murine mAb 151) (Respiratory Syncytial Virus strain A2) (UniProt P03420); assay: cell-based or functional assay
# [3] = biological target: F protein of MARM 19 (RSV A2 escape mutant generated against human Fab 19) (Respiratory Syncytial Virus strain A2) (UniProt P03420); assay: cell-based or functional assay
# [4] = biological target: F protein of RSV B-1 (ATCC Cat. No. 1400) (Respiratory Syncytial Virus B, strain B-1) (UniProt O36634); assay: cell-based or functional assay
# [5] = biological target: F protein of RSV B-wash (ATCC Cat. No. VR-1580, strain 18537) (Respiratory Syncytial Virus B, strain 18537) (UniProt P13843); assay: cell-based or functional assay
# [6] = biological target: F protein of the IgG form of 58C5 MARM (N63K, M115K and E295G) (Respiratory Syncytial Virus strain A2) (UniProt P03420); assay: cell-based or functional assay
# [7] = biological target: F protein of the motavizumab MARM (K272E) (Respiratory Syncytial Virus strain A2) (UniProt P03420); assay: cell-based or functional assay
# [8] = biological target: T1, RSV strain A2 F protein (recombinant or native, not specified for Table 19) (Respiratory Syncytial Virus strain A2, UniProt P03420 26-524); assay: ELISA, IgG titrated on captured RSV F protein; EC50 estimated
# T1 construct: also called RSV F Protein
molecule,measurement,setting,value
IgG form of 58c5 (antibody),"Average Plaque Count, 0.003 ug/ml",[1],17.7 plaques
same,"Average Plaque Count, 0.016 ug/ml",[1],11.7 plaques
same,"Average Plaque Count, 0.08 ug/ml",[1],5.7 plaques
same,"Average Plaque Count, 0.4 ug/ml",[1],2.3 plaques
same,"Average Plaque Count, 2 ug/ml",[1],0 plaques
same,"Average Plaque Count, 10 ug/ml",[1],0 plaques
same,"Plaque reduction rate, 0.003 ug/ml",[1],21%
same,"Plaque reduction rate, 0.016 ug/ml",[1],47%
same,"Plaque reduction rate, 0.08 ug/ml",[1],74%
same,"Plaque reduction rate, 0.4 ug/ml",[1],90%
same,"Plaque reduction rate, 2 ug/ml",[1],100%
same,"Plaque reduction rate, 10 ug/ml",[1],100%
same,"Average Plaque Count, 0.003 ug/ml",[2],151 plaques
same,"Average Plaque Count, 0.016 ug/ml",[2],128 plaques
same,"Average Plaque Count, 0.08 ug/ml",[2],112 plaques
same,"Average Plaque Count, 0.4 ug/ml",[2],64.7 plaques
same,"Average Plaque Count, 2 ug/ml",[2],15.3 plaques
same,"Average Plaque Count, 10 ug/ml",[2],0 plaques
same,"Plaque reduction rate, 0.003 ug/ml",[2],0%
same,"Plaque reduction rate, 0.016 ug/ml",[2],15%
same,"Plaque reduction rate, 0.08 ug/ml",[2],26%
same,"Plaque reduction rate, 0.4 ug/ml",[2],57%
same,"Plaque reduction rate, 2 ug/ml",[2],90%
same,"Plaque reduction rate, 10 ug/ml",[2],100%
same,"Average Plaque Count, 0.003 ug/ml",[3],143 plaques
same,"Average Plaque Count, 0.016 ug/ml",[3],135 plaques
same,"Average Plaque Count, 0.08 ug/ml",[3],89.3 plaques
same,"Average Plaque Count, 0.4 ug/ml",[3],72 plaques
same,"Average Plaque Count, 2 ug/ml",[3],16.7 plaques
same,"Average Plaque Count, 10 ug/ml",[3],0.7 plaques
same,"Plaque reduction rate, 0.003 ug/ml",[3],8%
same,"Plaque reduction rate, 0.016 ug/ml",[3],14%
same,"Plaque reduction rate, 0.08 ug/ml",[3],42.7%
same,"Plaque reduction rate, 0.4 ug/ml",[3],53.8%
same,"Plaque reduction rate, 2 ug/ml",[3],89%
same,"Plaque reduction rate, 10 ug/ml",[3],100%
same,"Average Plaque Count, 0.003 ug/ml",[4],11.7 plaques
same,"Average Plaque Count, 0.016 ug/ml",[4],9.3 plaques
same,"Average Plaque Count, 0.08 ug/ml",[4],4 plaques
same,"Average Plaque Count, 0.4 ug/ml",[4],0.3 plaques
same,"Average Plaque Count, 2 ug/ml",[4],0 plaques
same,"Average Plaque Count, 10 ug/ml",[4],0 plaques
same,"Plaque reduction rate (%), 0.003 ug/ml",[4],5%
same,"Plaque reduction rate (%), 0.016 ug/ml",[4],24%
same,"Plaque reduction rate (%), 0.08 ug/ml",[4],67.5%
same,"Plaque reduction rate (%), 0.4 ug/ml",[4],97.6%
same,"Plaque reduction rate (%), 2 ug/ml",[4],100%
same,"Plaque reduction rate (%), 10 ug/ml",[4],100%
same,"Average Plaque Count, 0.003 ug/ml",[5],20.7 plaques
same,"Average Plaque Count, 0.016 ug/ml",[5],16.3 plaques
same,"Average Plaque Count, 0.08 ug/ml",[5],7.7 plaques
same,"Average Plaque Count, 0.4 ug/ml",[5],1.3 plaques
same,"Average Plaque Count, 2 ug/ml",[5],0 plaques
same,"Average Plaque Count, 10 ug/ml",[5],0 plaques
same,"Plaque reduction rate (%), 0.003 ug/ml",[5],21%
same,"Plaque reduction rate (%), 0.016 ug/ml",[5],38%
same,"Plaque reduction rate (%), 0.08 ug/ml",[5],71%
same,"Plaque reduction rate (%), 0.4 ug/ml",[5],95%
same,"Plaque reduction rate (%), 2 ug/ml",[5],100%
same,"Plaque reduction rate (%), 10 ug/ml",[5],100%
same,"ED50, neutralization of IgG 58C5 MARM",[6],> 66.7 nM
same,"Plaque reduction rate, IgG 58C5 MARM, 3.2 ng/ml",[6],0%
same,"Plaque reduction rate, IgG 58C5 MARM, 16 ng/ml",[6],0%
same,"Plaque reduction rate, IgG 58C5 MARM, 80 ng/ml",[6],0%
same,"Plaque reduction rate, IgG 58C5 MARM, 400 ng/ml",[6],0%
same,"Plaque reduction rate, IgG 58C5 MARM, 2000 ng/ml",[6],0%
same,"Plaque reduction rate, IgG 58C5 MARM, 10000 ng/ml",[6],3.3%
same,"ED50, neutralization of Motavizumab MARM",[7],0.173 nM
same,"Plaque reduction rate, Motavizumab MARM, 3.2 ng/ml",[7],1.5%
same,"Plaque reduction rate, Motavizumab MARM, 16 ng/ml",[7],43%
same,"Plaque reduction rate, Motavizumab MARM, 80 ng/ml",[7],74.6%
same,"Plaque reduction rate, Motavizumab MARM, 400 ng/ml",[7],92%
same,"Plaque reduction rate, Motavizumab MARM, 2000 ng/ml",[7],95.8%
same,"Plaque reduction rate, Motavizumab MARM, 10000 ng/ml",[7],97.6%
B1,EC50,[8],~0.027 nM
